From patent publication US20100248359A1 (Chugai, published 2010) come the findings set out here.

The EC50 is the concentration at which the effect is half-maximal. The low end stands for an effect from little substance, the high end for a need for much substance. By Kd is commonly meant the equilibrium constant for the complex coming apart. High values mean lower affinity, low ones higher affinity. By koff is commonly meant a measure of how fast the partners let go of each other. By kon is commonly meant the rate constant with which the complex forms. What is called EC50 (read off the curve) is the midpoint of the concentration-response curve. A high value points to a less potent agent.

The target of experiment [1] is T1, soluble form of GPC3 core protein (human, UniProt P51654 25-563).
T1 construct: not shown: His tag added to the C-terminus
The experiment is described as follows: competitive ELISA on coated soluble GPC3 core protein; labelled competitor biotin-M1E7.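 Note: Biotin-labelled antibody added as 10 µL at 10 µg/mL for 1 h.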
Target sequence in this assay (P51654 25-563 S495A/S509A, form in doubt): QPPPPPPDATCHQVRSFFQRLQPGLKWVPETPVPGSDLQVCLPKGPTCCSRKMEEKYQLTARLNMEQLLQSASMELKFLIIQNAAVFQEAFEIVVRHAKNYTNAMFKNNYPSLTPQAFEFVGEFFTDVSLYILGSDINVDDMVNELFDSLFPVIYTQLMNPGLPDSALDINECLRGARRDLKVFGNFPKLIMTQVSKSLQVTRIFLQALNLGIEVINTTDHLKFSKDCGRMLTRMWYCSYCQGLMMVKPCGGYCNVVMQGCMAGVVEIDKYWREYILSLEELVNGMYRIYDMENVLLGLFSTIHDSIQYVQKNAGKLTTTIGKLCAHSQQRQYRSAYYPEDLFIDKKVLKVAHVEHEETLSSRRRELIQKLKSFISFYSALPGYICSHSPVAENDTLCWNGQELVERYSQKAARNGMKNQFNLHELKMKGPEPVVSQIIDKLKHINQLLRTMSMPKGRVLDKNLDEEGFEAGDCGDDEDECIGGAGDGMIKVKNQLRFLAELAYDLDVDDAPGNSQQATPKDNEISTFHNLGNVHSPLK

The target in experiment [2] is T1, soluble form of GPC3 core protein. Kind of experiment: competitive ELISA on coated soluble GPC3 core protein; labelled competitor biotin-M10D2. (ELISA stands for enzyme-linked immunosorbent assay.)
Target sequence in this assay (P51654 25-563 S495A/S509A, form in doubt): as above
Protocol: (§1) The antibodies were biotinylated using a Biotin Labeling Kit (Roche). The soluble form of GPC3 core protein was diluted to 1 μg/mL with the coating buffer and added to a plate at 100 μL/well and stored at 4° C. overnight to coat the plate. On the next day, 200 μL of the substrate buffer was added for blocking. The plate was left at 4° C. overnight or longer and an anti-GPC3 antibody was added to the plate at 100 μL/well and reacted at room temperature for 1 hour. After that, without washing of the plate, 10 μL of 10 μg/mL biotin-labeled anti-GPC3 antibody was added and further reacted for 1 hour. The plate was washed with 300 μL/well of the rinse buffer for 3 times. AP-streptavidin conjugate (ZYMED) was diluted to 1000-fold with the dilution buffer and added at 100 μL/well and reacted at room temperature for 1 hour. The plate was washed with 300 μL/well of the rinse buffer for 5 times.
Experiment [3] addresses T2, full-length human GPC3 (human, UniProt P51654 25-554).
T2 construct: On CHO (DXB11) or SK-HEP-1 (SK-03) transfectants; also used here for the GPC3 on the hepatoma lines HepG2 and HuH-7; also called human glypican 3
Kind of experiment: flow cytometry, antibody at 5 µg/mL, HepG2 cells. In general terms: Flow cytometry measures light scatter and fluorescence of single cells or particles in a stream.
Protocol: (§2) Cells were dissociated with 1 mM EDTA pH 8.0 (GIBCO)/PBS and suspended in FACS buffer (1% FBS/PBS) at 1×10⁶ cells/mL. The suspension was dispensed to a Multiscreen-HV Filter Plate (Millipore) at 100 μL/well and the supernatant was removed by centrifugation. An anti-GPC3 antibody diluted to an appropriate concentration was added and reacted on ice for 30 minutes. The cells were washed once with FACS buffer and an FITC-labeled anti-mouse IgG antibody was added and reacted on ice for 30 minutes. After the reaction, the cells were centrifuged at 500 rpm for 1 minute, and the supernatant was removed. The cells were suspended in 400 μL of FACS buffer and subjected to flow cytometry. EPICS ELITE ESP (Beckman Coulter) was used as a flow cytometer. A gate was set on the living cell population with the histogram of forward scatter and side scatter.

The target of experiment [4] is T1, soluble form of GPC3 core protein. The experiment is described as follows: competitive ELISA on coated soluble GPC3 core protein; labelled competitor biotin-M6B1.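 Note: Biotin-labelled antibody added as 10 µL at 10 µg/mL for 1 h.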
Target sequence in this assay (P51654 25-563 S495A/S509A, form in doubt): as above
In experiment [5] the target is T2, full-length human GPC3. Kind of experiment: flow cytometry, antibody at 5 µg/mL, CHO cells expressing human GPC3 (column CHO/human GPC3).
Protocol: as §2
The target of experiment [6] is T1, soluble form of GPC3 core protein. The experiment is described as follows: competitive ELISA on coated soluble GPC3 core protein; labelled competitor biotin-M11F1.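 Note: Biotin-labelled antibody added as 10 µL at 10 µg/mL for 1 h.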
Target sequence in this assay (P51654 25-563 S495A/S509A, form in doubt): as above
Protocol: as §1
The target is the same in experiment [7]. The experiment is described as follows: competitive ELISA on coated soluble GPC3 core protein; labelled competitor biotin-L9G11.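 Note: Biotin-labelled antibody added as 10 µL at 10 µg/mL for 1 h.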
Protocol: (§3) The obtained antibodies were classified according to the epitopes by a competitive ELISA. The antibodies were biotinylated using a Biotin Labeling Kit (Roche). The soluble form of GPC3 core protein was diluted to 1 μg/mL with the coating buffer and added to a plate at 100 μL/well and stored at 4° C. overnight to coat the plate. On the next day, 200 μL of the substrate buffer was added for blocking. The plate was left at 4° C. overnight or longer and an anti-GPC3 antibody was added to the plate at 100 μL/well and reacted at room temperature for 1 hour. After that, without washing of the plate, 10 μL of 10 μg/mL biotin-labeled anti-GPC3 antibody was added and further reacted for 1 hour. The plate was washed with 300 μL/well of the rinse buffer for 3 times. AP-streptavidin conjugate (ZYMED) was diluted to 1000-fold with the dilution buffer and added at 100 μL/well and reacted at room temperature for 1 hour. The plate was washed with 300 μL/well of the rinse buffer for 5 times.
Experiment [8] shares this target. Kind of experiment: ELISA on plate coated with soluble GPC3 core protein.
Target sequence in this assay (P51654 25-563 S495A/S509A, form in doubt): as above
Experiment [9] has the same target. The experiment is described as follows: competitive ELISA on coated soluble GPC3 core protein; labelled competitor biotin-M18D4.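 Note: Biotin-labelled antibody added as 10 µL at 10 µg/mL for 1 h.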
Target sequence in this assay (P51654 25-563 S495A/S509A, form in doubt): as above
Protocol: as §3
Experiment [10] concerns the target T2, full-length human GPC3. The experiment is described as follows: BIACORE; the form of GPC3 used is not given.
Experiment [11] addresses T1, soluble form of GPC3 core protein. Kind of experiment: competitive ELISA on coated soluble GPC3 core protein; labelled competitor biotin-M3C11.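 Note: Biotin-labelled antibody added as 10 µL at 10 µg/mL for 1 h.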
Protocol: as §3
Experiment [12] deals with T2, full-length human GPC3. The experiment is described as follows: flow cytometry, antibody at 5 µg/mL, HuH-7 cells.
Protocol: as §2
Experiment [13] addresses T1, soluble form of GPC3 core protein. The experiment is described as follows: competitive ELISA on coated soluble GPC3 core protein; labelled competitor biotin-M5B9.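 Note: Biotin-labelled antibody added as 10 µL at 10 µg/mL for 1 h.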
Protocol: as §1
Experiment [14] shares this target. The experiment is described as follows: ELISA on GPC3 (the legend says only GPC3; the filing's ELISA uses plates coated with soluble GPC3 core protein) [upper panel].

Positions count from the first letter of the chain named.
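Throughout, for Inhibition of the binding of indicated biotin-Mab to sGPC3 core (%): Biotin-labelled antibody added as 10 µL at 10 µg/mL for 1 h.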

T2 sequence (P51654 25-554 limits assumed): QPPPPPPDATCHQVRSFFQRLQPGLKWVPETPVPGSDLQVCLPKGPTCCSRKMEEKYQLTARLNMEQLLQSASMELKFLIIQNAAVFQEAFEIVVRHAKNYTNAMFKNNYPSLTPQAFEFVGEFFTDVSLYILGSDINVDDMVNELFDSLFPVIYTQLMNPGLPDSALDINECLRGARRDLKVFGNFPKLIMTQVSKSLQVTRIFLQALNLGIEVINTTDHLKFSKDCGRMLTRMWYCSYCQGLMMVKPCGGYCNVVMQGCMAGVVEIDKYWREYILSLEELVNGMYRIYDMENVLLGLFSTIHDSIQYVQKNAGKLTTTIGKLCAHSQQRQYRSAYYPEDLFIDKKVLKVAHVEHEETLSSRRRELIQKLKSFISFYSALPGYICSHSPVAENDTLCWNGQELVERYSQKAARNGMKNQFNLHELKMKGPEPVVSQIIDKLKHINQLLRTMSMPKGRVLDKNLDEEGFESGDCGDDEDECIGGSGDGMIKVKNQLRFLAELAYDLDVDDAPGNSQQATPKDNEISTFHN

B1: M18D4 (antibody, human IgG1, kappa, V domains shown)
VH: EVQLQQSGTVLARPGASVKMSCKASGYTFTGYWMRWVKQRPGQGLEWIGAIYPGNSDTTYNQKFKGKAKLTAVTSVSTAYMELSSLTNEDSAVYYCSRSGDLTGGFAYWGQGTLVTVST
VL: DIVMTQAAFSNPVTLGTSTSISCRSSKSLLHSNGITYLYWYLQKPGQSPQLLIYQMSNLASGVPDRFSSSGSGTDFTLRISRVEAEDVGVYYCAQNLELPYTFGSGTKLEIKR
notes: Mouse monoclonal from hybridoma
In the case of B1, the “Inhibition of the binding of indicated biotin-Mab to sGPC3 core (%)” value (“Inhibition of the binding … (%)” for short) in experiment [1] was 0.5%; in experiment [2] it was 19.1%; in experiment [4], 38.6%; in experiment [6] it was -0.3%; in experiment [7] it was 6.7%; in [9], 89%. Besides, the “Inhibition of the binding … (%)” value came out at 0.2% in experiment [11] and 89.4% in experiment [13]. Moreover, the “FACS X-mode value of the histogram” value with full-length human GPC3 [3] was determined as 20; with full-length human GPC3 [5], 22; with full-length human GPC3 [12] it was 2. This molecule gave an EC50 in experiment [8] of 0.85 nM. The Kd with full-length human GPC3 [10] turned out to be 6.2 nM. Moreover, the koff with full-length human GPC3 [10] was determined as 0.000496 s⁻¹. In the experiment with full-length human GPC3 [10], this molecule had a kon of 80000 M⁻¹ s⁻¹.

B2: M5B9 (antibody, V domains shown)
VH: B1 VH with R35H, T59N, V76A, S91A, Y95H, S97T, F106L, T119A
VL: DIVMTQAAFSNPVTLGTSASISCRSSKSLLHSNGITYLYWFLQKPGQSPQLLIYQMSNLASGVPDRFSSSGSGTDFTLRISRVEAEDVGVYYCAQNLELPYTFGSGTKLEIK
notes: as for B1
As to B2, the “Inhibition of the binding … (%)” value in [1] came out at 2.7%; in experiment [2] it was 13.4%; in experiment [4] it was 23.2%; in experiment [6], 5.3%; in experiment [7], 10.3%; in experiment [9], 77.3%. For the same molecule, the “Inhibition of the binding … (%)” value in [11] was 0.1%; in [13], 77.3%. Also, the figures for the “FACS X-mode value of the histogram” value in the experiment with full-length human GPC3 [3], with full-length human GPC3 [5] and in the experiment with full-length human GPC3 [12] were 23, 25 and 2, respectively. This molecule displayed an EC50 in experiment [8] of 1.13 nM. Moreover, binding in the experiment with full-length human GPC3 [10] was characterised by a dissociation constant (Kd) of 23.5 nM. The koff with full-length human GPC3 [10] came out at 0.00139 s⁻¹. Besides, the kon with full-length human GPC3 [10] worked out at 60000 M⁻¹ s⁻¹.

B3: M13B3 (antibody, V domains shown)
VH: EVHLVESGGGLVKPGGSLKLSCAASGFTFSNYAMSWVRQTPEKRLEWVAAINNNGDDTYYLDTVKDRFTISRDNAKNTLYLQMSSLRSEDTALYYCVRQGGAYWGQGTLVTVSA
VL: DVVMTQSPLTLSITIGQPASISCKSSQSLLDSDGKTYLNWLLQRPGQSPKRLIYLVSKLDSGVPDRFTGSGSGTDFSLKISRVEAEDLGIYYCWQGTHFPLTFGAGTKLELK
notes: as for B1
Take B3: the “Inhibition of the binding … (%)” value in experiment [1] amounted to 95.7%; in experiment [2], 22.3%; in experiment [4] it was 9.3%; in experiment [6] it was 15.6%; in [7] it was 24.9%; in experiment [9] it was 2.7%. For the same molecule, the “Inhibition of the binding … (%)” value in [11] was 71.3%; in [13], -1.8%. The molecule further showed an EC50 in experiment [8] of 0.25 nM.

B4: M6B1 (antibody, V domains shown)
VH: EVQLVESGGDLVKPGGSLKLSCAASGFTFSSYAMSWVRQTPEKRLEWVAAINSNGGTTYYPDTMKDRFTISRDNAKNTLYLQMSSLRSEDSALYYCTRHNGGYENYGWFAYWGQGTLVTVSA
VL: DIQMTQSPSSLSASLGGKVTITCKASQDINKNIIWYQHKPGKGPRLLIWYTSTLQPGIPSRFSGSGSGRDYSFSISNLEPEDIATYYCLQYDNLPRTFGGGTKLEIK
notes: as for B1
Take B4: the “Inhibition of the binding … (%)” value in experiment [1] is -2.7%; in [2] it was 6.7%; in experiment [4], 85.6%; in [6] it was 13.9%; in experiment [7], 1.1%; in experiment [9], 51.9%. The “Inhibition of the binding … (%)” value was -5.7% in experiment [11] and 44.4% in experiment [13]. The “FACS X-mode value of the histogram” value was 34 with full-length human GPC3 [3], 37 with full-length human GPC3 [5] and 3 in the experiment with full-length human GPC3 [12]. In addition, in experiment [8], the EC50 worked out at 5.51 nM.

B5: GC33 mouse-human chimeric antibody (antibody, V domains shown)
VH: QVQLQQSGAELVRPGASVKLSCKASGYTFTDYEMHWVKQTPVHGLKWIGALDPKTGDTAYSQKFKGKATLTADKSSSTAYMELRSLTSEDSAVYYCTRFYSYTYWGQGTLVTVSA
VL: DVVMTQTPLSLPVSLGDQASISCRSSQSLVHSNGNTYLHWYLQKPGQSPKLLIYKVSNRFSGVPDRFSGSGSGTDFTLKISRVEAEDLGVYFCSQNTHVPPTFGSGTKLEIK
notes: also called chimeric antibody GC33; mouse/mouse
As for B5, in experiment [14], the “EC50 (read off the curve)” value was about 0.01 µg/mL.

B6: humanized GC33 H chain ver.f / L chain ver.a (antibody, V domains shown)
VH: QVQLVESGAEVKKPGASVKVSCKASGYTFTDYEMHWVRQAPGQGLEWMGALDPKTGDTAYSQKFKGRVTLTADKSTSTAYMELSSLRSEDTAVYYCTRFYSYTYWGQGTLVTVSS
VL: B5 VL with T7S, S14T, L15P, D17E, Q18P, K50Q, L88V, F92Y, S105Q
Regarding B6, the “EC50 (read off the curve)” value in experiment [14] is about 0.01 µg/mL.

B7: humanized GC33 H chain ver.c / L chain ver.a (antibody, V domains shown)
VH: B6 VH with K74E
VL: B5 VL with T7S, S14T, L15P, D17E, Q18P, K50Q, L88V, F92Y, S105Q
B7: the “EC50 (read off the curve)” value in [14] was about 0.01 µg/mL.

B8: humanized GC33 ver.a/ver.a (antibody, V domains shown)
VH: B6 VH with L70I, K74E, T97A
VL: B5 VL with T7S, S14T, L15P, D17E, Q18P, K50Q, L88V, F92Y, S105Q
notes: Human IgG (HEFg gamma1 vector) and human kappa constant regions
Turning to B8, the “EC50 (read off the curve)” value in experiment [14] is about 0.1 µg/mL.

B9: M10D2 (antibody, V domains shown)
VH: QVQLQQPGAELVKPGASVKLSCKASGYTFTSYWMHWVKQRPGQGLEWIGEIDPSDSYTYYNQKFRGKATLTVDKSSNTAYMQLSSLTSEDSAVYYCSRSNLGDGHYRFPAFPYWGQGTLVTVSA
VL: DIVLTQSPATLSVTPGDRVSLSCRASHSISNFLHWYPQKSHESPRLLIKYASQSISGIPSRFSGNGSGTDFTLSINSVETEDFGMYFCQQSNIWSLTFGAGTKLELK
notes: as for B1
B9: the “Inhibition of the binding … (%)” value is 0.6% in experiment [1]; 79.2% in [2]; -5.9% in experiment [4]; 7.8% in experiment [6]; 7.2% in experiment [7]; -21.6% in experiment [9]. Further, the entries for the “Inhibition of the binding … (%)” value in experiment [11] and in experiment [13] were -7.7% and -10.3%, respectively. Moreover, the “FACS X-mode value of the histogram” value is 29 with full-length human GPC3 [3], 20 in the experiment with full-length human GPC3 [5] and 3 with full-length human GPC3 [12]. The same molecule came in with an EC50 in experiment [8] of 1.04 nM. This molecule also registered a Kd with full-length human GPC3 [10] of 4.7 nM. This molecule also registered a koff in the experiment with full-length human GPC3 [10] of 0.000496 s⁻¹. The kon with full-length human GPC3 [10] amounted to 110000 M⁻¹ s⁻¹.
